Measured values reported in paper PMC9374677.
pKd: −log10 of the molar value.

Molecular target: MBP-TNFR1^ECD deletion mutant ΔCRD2 (human) (UniProt P19438)
Test: ITC; MicroCal PEAQ-ITC, 16 °C; […] (500–600 μM) […] (~60 μM); 20 mM Tris-HCl pH 7.5, 200 mM NaCl; […]

Substance: Staphylococcal superantigen-like protein 10 (SSL10), residues 31-227, C-terminal 6xHis (from UniProt A0A0H3K6Z9 31-227) (natural protein)
- pKd: 4.52
